{"source": "patent US20220160939A1", "about": "“SELF-ASSEMBLING PEPTIDES AS BRONCHIAL OBSTRUCTION AGENTS” (3-D MATRIX, LTD., priority 2014, published 2022)", "format_in_all_cases": "physicochemical", "key": {"[1]": {"experiment": "Appearance of 1.5% peptide solutions with various salts at room temperature", "conditions": "for Appearance: room temperature", "description": "The effect of salt ionic strength level on the properties of peptide solutions was evaluated to identify optimized salt ionic strength levels for the peptides as described herein. Increasing the salt ionic strength level of PuraMatrix® (SEQ ID NO:1) and other peptides may generally improve its function and mechanical strength for various clinical applications. To adjust the salt ionic strength of the peptide solutions by way of example, various salt buffer solutions including NaCl, KCl, MgCl2, CaCl2 and DPBS (10×) were added to 2 mL of 1.5% peptide solutions."}, "[2]": {"experiment": "Rheological properties of pH adjusted peptide solutions", "description": "Based on the visual observation of the effect of pH level on the properties of the peptide solutions, the effect on the rheological properties of the peptide solutions after adjusting their pH level to 3.4 (PuraMatrix® (SEQ ID NO:1) and KLD12 (SEQ ID NO:3)) or 3.7 (IEIK13 (SEQ ID NO:2)) was evaluated. If the pH levels of peptide solutions are higher than 3.5 (PuraMatrix® (SEQ ID NO:1) and KLD12 (SEQ ID NO:3)) or 3.7 (IEIK13 (SEQ ID NO:2)), the peptide solution began phase separation becoming cloudy. The rheological properties of PuraMatrix® (SEQ ID NO:1), KLD12 (SEQ ID NO:3) and IEIK13 (SEQ ID NO:2) solutions were higher at pH 3.4. The results are shown in FIG. 2 for KLD12 (SEQ ID NO:3) 1%, FIG. 3 for IEIK13 (SEQ ID NO:2) 1%, and FIGS. 4-5 for PuraMatrix® (SEQ ID NO:1) 1% and 2.5%, respectively. Stress sweep tests were performed at 10 rad/s. Frequency sweep tests were performed at 1 Pa.\nBased on the results of the effect on the rheological properties of the peptide solutions after adjusting their pH level to 3.4 (PuraMatrix® (SEQ ID NO:1) and KLD12 (SEQ ID NO:3)) or 3.7 (IEIK13 (SEQ ID NO:2)), the effect on the rheological properties of the peptide solutions at various pH levels was evaluated. […] The rheological properties of peptides were evaluated at various concentrations using a rheometer (DHR-1, TA Instruments) with 20 mm plates. The results are shown in FIG. 6A for PuraMatrix® (SEQ ID NO:1) 2.5% solution and FIG. 6B for IEIK13 (SEQ ID NO:2) 1.5% solution, respectively. Frequency sweep tests were performed from 1 rad/sec to 10 rad/sec at 1 Pa and the storage modulus at 1 rad/sec was selected for data."}, "[3]": {"experiment": "Gelation of peptide solutions after saline buffer treatment, time sweep test", "conditions": "saline buffer (0.15 M of NaCl), no pH change; IEIK13 1.5%, KLD12 1.5%, PuraMatrix 2.5%", "description": "The effect of salt ionic strength level surrounding peptides in solution on the properties of peptide solutions was evaluated to identify the possibility of peptide gelation when the peptide solution is placed into the environment where salt ionic strength level is high. […] Without pH effect, the effect of saline treatment on gelation of peptide solutions were evaluated. […] This is because IEIK13 (SEQ ID NO:2) is much more sensitive to salt ionic strength levels. Fast gelation of IEIK13 (SEQ ID NO:2) at the salt ionic strength level similar to body fluid isotonic salt level may generally improve its function and gelation speed for various clinical applications. The results are shown in FIG. 19 for IEIK13 (SEQ ID NO:2), KLD12 (SEQ ID NO:3) and PuraMatrix® (SEQ ID NO:1) solutions. Time sweep tests were performed at 1 rad/sec and at 1 Pa with 20 mm plates and 500 μm gap distance. […]"}}}
{"substance": "Ile-Glu-Ile-Lys-Ile-Glu-Ile-Lys-Ile-Glu-Ile-Lys-Ile [IEIK13]", "values": [{"measurement": "critical salt ionic strengths at which peptides become cloudy", "setting": "[1]", "value": "0.03˜0.04 M"}, {"measurement": "Appearance", "setting": "[1]; CaCl2 0 M, ionic strength 0 M, conc. 1.5%", "value": "Clear, thick gel"}, {"measurement": "Appearance", "setting": "[1]; CaCl2 0.005 M, ionic strength 0.015 M, conc. 1.46%", "value": "Clear, thick, stiffer gel"}, {"measurement": "Appearance", "setting": "[1]; CaCl2 0.0067 M, ionic strength 0.02 M, conc. 1.45%", "value": "Clear, thick, stiffer gel"}, {"measurement": "Appearance", "setting": "[1]; CaCl2 0.0083 M, ionic strength 0.025 M, conc. 1.44%", "value": "Clear, thick, stiffer gel"}, {"measurement": "Appearance", "setting": "[1]; CaCl2 0.01 M, ionic strength 0.03 M, conc. 1.43%", "value": "Clear, thick, stiffer gel"}, {"measurement": "Appearance", "setting": "[1]; CaCl2 0.0117 M, ionic strength 0.035 M, conc. 1.41%", "value": "Clear, thick, stiffer gel"}, {"measurement": "Appearance", "setting": "[1]; CaCl2 0.0133 M, ionic strength 0.04 M, conc. 1.40%", "value": "Slightly cloudy, thick, stiffer gel"}, {"measurement": "Appearance", "setting": "[1]; CaCl2 0.015 M, ionic strength 0.045 M, conc. 1.39%", "value": "Slightly cloudy, thick, stiffer gel"}, {"measurement": "Appearance", "setting": "[1]; CaCl2 0.0167 M, ionic strength 0.05 M, conc. 1.37%", "value": "Slightly cloudy, brittle gel"}, {"measurement": "Appearance", "setting": "[1]; CaCl2 0.0183 M, ionic strength 0.055 M, conc. 1.36%", "value": "Cloudy, phase-separated"}, {"measurement": "Appearance", "setting": "[1]; KCl 0 M, ionic strength 0 M, conc. 1.5%", "value": "Clear, thick gel"}, {"measurement": "Appearance", "setting": "[1]; KCl 0.005 M, ionic strength 0.005 M, conc. 1.46%", "value": "Clear, thick, stiffer gel"}, {"measurement": "Appearance", "setting": "[1]; KCl 0.01 M, ionic strength 0.01 M, conc. 1.43%", "value": "Clear, thick, stiffer gel"}, {"measurement": "Appearance", "setting": "[1]; KCl 0.015 M, ionic strength 0.015 M, conc. 1.39%", "value": "Clear, thick, stiffer gel"}, {"measurement": "Appearance", "setting": "[1]; KCl 0.02 M, ionic strength 0.02 M, conc. 1.35%", "value": "Clear, thick, stiffer gel"}, {"measurement": "Appearance", "setting": "[1]; KCl 0.025 M, ionic strength 0.025 M, conc. 1.31%", "value": "Clear, thick, stiffer gel"}, {"measurement": "Appearance", "setting": "[1]; KCl 0.03 M, ionic strength 0.03 M, conc. 1.27%", "value": "Clear, thick, stiffer gel"}, {"measurement": "Appearance", "setting": "[1]; KCl 0.035 M, ionic strength 0.035 M, conc. 1.24%", "value": "Slightly cloudy, brittle gel"}, {"measurement": "Appearance", "setting": "[1]; KCl 0.04 M, ionic strength 0.04 M, conc. 1.2%", "value": "Slightly cloudy, brittle"}, {"measurement": "Appearance", "setting": "[1]; KCl 0.045 M, ionic strength 0.045 M, conc. 1.16%", "value": "Cloudy, phase-separated"}, {"measurement": "Appearance", "setting": "[1]; MgCl2 0 M, ionic strength 0 M, conc. 1.5%", "value": "Clear, thick gel"}, {"measurement": "Appearance", "setting": "[1]; MgCl2 0.005 M, ionic strength 0.015 M, conc. 1.46%", "value": "Clear, thick, stiffer gel"}, {"measurement": "Appearance", "setting": "[1]; MgCl2 0.0067 M, ionic strength 0.02 M, conc. 1.45%", "value": "Clear, thick, stiffer gel"}, {"measurement": "Appearance", "setting": "[1]; MgCl2 0.0083 M, ionic strength 0.025 M, conc. 1.44%", "value": "Clear, thick, stiffer gel"}, {"measurement": "Appearance", "setting": "[1]; MgCl2 0.01 M, ionic strength 0.03 M, conc. 1.43%", "value": "Clear, thick, stiffer gel"}, {"measurement": "Appearance", "setting": "[1]; MgCl2 0.0117 M, ionic strength 0.035 M, conc. 1.41%", "value": "Clear, thick, stiffer gel"}, {"measurement": "Appearance", "setting": "[1]; MgCl2 0.0133 M, ionic strength 0.04 M, conc. 1.40%", "value": "Slightly cloudy, thick, stiffer gel"}, {"measurement": "Appearance", "setting": "[1]; MgCl2 0.015 M, ionic strength 0.045 M, conc. 1.39%", "value": "Slightly cloudy, stiffer gel"}, {"measurement": "Appearance", "setting": "[1]; MgCl2 0.0167 M, ionic strength 0.05 M, conc. 1.37%", "value": "Slightly cloudy, brittle gel"}, {"measurement": "Appearance", "setting": "[1]; MgCl2 0.0183 M, ionic strength 0.055 M, conc. 1.36%", "value": "Cloudy, phase-separated"}, {"measurement": "Appearance", "setting": "[1]; NaCl 0 M, ionic strength 0 M, conc. 1.5%", "value": "Clear, thick gel"}, {"measurement": "Appearance", "setting": "[1]; NaCl 0.005 M, ionic strength 0.005 M, conc. 1.46%", "value": "Clear, thick, stiffer gel"}, {"measurement": "Appearance", "setting": "[1]; NaCl 0.01 M, ionic strength 0.01 M, conc. 1.43%", "value": "Clear, thick, stiffer gel"}, {"measurement": "Appearance", "setting": "[1]; NaCl 0.015 M, ionic strength 0.015 M, conc. 1.39%", "value": "Clear, thick, stiffer gel"}, {"measurement": "Appearance", "setting": "[1]; NaCl 0.02 M, ionic strength 0.02 M, conc. 1.35%", "value": "Clear, thick, stiffer gel"}, {"measurement": "Appearance", "setting": "[1]; NaCl 0.025 M, ionic strength 0.025 M, conc. 1.31%", "value": "Clear, thick, stiffer gel"}, {"measurement": "Appearance", "setting": "[1]; NaCl 0.03 M, ionic strength 0.03 M, conc. 1.27%", "value": "Slightly cloudy, thick, stiffer gel"}, {"measurement": "Appearance", "setting": "[1]; NaCl 0.035 M, ionic strength 0.035 M, conc. 1.24%", "value": "Slightly cloudy, brittle gel"}, {"measurement": "Appearance", "setting": "[1]; NaCl 0.04 M, ionic strength 0.04 M, conc. 1.2%", "value": "Cloudy, phase-separated"}, {"measurement": "salt ionic strength increase that did not change the clear color, while apparent stiffness increased", "setting": "[1]; depending on different salts, 1.5% peptide solutions", "value": "0.025˜0.035 M"}, {"measurement": "pH level above which the peptide solution began phase separation becoming cloudy", "setting": "[2]", "value": "> 3.7"}, {"measurement": "rheological properties of solutions at pH 3.4", "setting": "[2]; pH adjusted vs not adjusted, KLD12 1%, IEIK13 1%, PuraMatrix 1% and 2.5%", "value": "higher"}, {"measurement": "gelation after saline buffer treatment", "setting": "[3]", "value": "fast gelation"}]}
